T1: rat ghrelin (full length, acylated) (rat, UniProt Q9QYH7 24-51, acylated (group and position not restated for the rat peptide))
T1 construct: mature; the assay used the full-length ghrelin peptide
T1 peptide (looked up): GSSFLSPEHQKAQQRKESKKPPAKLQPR

B1: Ghrelin (1-8), the first eight amino acids of human ghrelin acylated, via an ester linkage, with an octanoyl group on the serine at position 3 (peptide)
peptide: GSS(Octanoyl)FLSPE
notes: also called human ghrelin amino acids 1-8 acylated with octanoic acid
B2: anti-hGhrelin Fab 2891 (Fab, V domains shown)
VH: EIQLQQSGAELMKPGASVKLSCKATGYTFTGYWIEWVKQRPGHGLEWIGEILPGSGSTNYNEKFKGKATFTADTSSNTANMQLSSLTTEDSAIYYCARYPQFRLRRERIAYWGQGTLVTVSV
VL: DLVLTQSPASLAVSLGQRATISCRASKSVSTSGYSYMHWYQQKPGQPPKLLIYLASNLESGVPARFSGSGSGTDFTLNIHPVEEEDAATYYCQHSRELPYTFGAGTKLELKR
notes: Mouse Fab, kappa light chain
B3: anti-hGhrelin Fab 1111 (Fab, V domains shown)
VH: B2 VH with T28I
VL: B2 VL
notes: Mouse Fab from an Omniclonal library (immunised C57Bl/6 mice); kappa light chain (detected or captured with goat anti-mouse kappa)
B4: anti-hGhrelin Fab 2291 (Fab, V domains shown)
VH: B2 VH with V37A
VL: B2 VL with S60P
notes: Mouse Fab, kappa light chain
B5: anti-hGhrelin Fab 2211 (Fab, V domains shown)
VH: B2 VH with K13R, R103G
VL: B2 VL
notes: Mouse Fab, kappa light chain

Test [1] has as its target B4. The experiment in a line: competitive ELISA; competitor at 5 µg/ml preincubated with Fab 2291 0.1 µg/ml, OD of Fab bound to BSA-hGhrelin wells. The method, then:
(§1) Each well of a 96-well plate was coated with 60 μl BSA-hGhrelin antigen (i.e., BSA conjugated, full-length, acylated human ghrelin, 2 μg/ml in carbonate buffer, pH 9.6). The plate was incubated at 4° C. overnight. The wells were aspirated and washed twice with washing buffer (20 mM Tris-Cl, pH 7.4, 0.15 M NaCl, 0. 1% Tween 20). Compounds (i.e., human ghrelin or ghrelin analogs) were diluted into antibody solution. The antibody solution was mouse-anti-human ghrelin Fab. The ghrelin competitor concentration was varied as listed in Tables 2 and 3 below, but the Fab-concentration was kept constant at 0.1 μg/ml in blocking solution (10 mg/ml BSA in wash buffer). After a 1 hour incubation at room temperature, 50 μl of compound-antibody solution was added to BSA-hGhrelin coated wells in triplicate. The plates were incubated for 1 hour at room temperature. The wells were then washed three times with washing buffer.
(§2) Peroxidase-conjugated secondary antibody (50 μl goat anti-mouse kappa HRP (Southern Biotech), diluted 1:2000 in blocking buffer) was added to each well and incubated for 1 hour at room temperature. The wells were then washed 4 times with washing buffer. Fifty microliters of chromogenic substrate (i.e., OPD substrate) was added to each well and allowed to develop at room temperature for 10 minutes. […] The absorbance of the wells was read at 490 nm. […]

For test [2], the target named is B4. Put plainly: competitive ELISA; competitor at 0.2 µg/ml preincubated with Fab 2291 0.1 µg/ml, OD of Fab bound to BSA-hGhrelin wells. Here is the method:
as §1, §2

Test [3] concerns the target B4. The experiment in a line: competitive ELISA; competitor at 1 µg/ml preincubated with Fab 2291 0.1 µg/ml, OD of Fab bound to BSA-hGhrelin wells. The method, then:
as §1, §2

Test [4] has as its target T1, rat ghrelin (full length, acylated). Put plainly: SPR, BIAcore 2000, 25 C; Fab captured by goat anti-mouse kappa, rat ghrelin as analyte; koff/kon, average of three. The method, then:
(§3) The BIAcore® utilizes the optical properties of surface plasmon resonance to detect alterations in protein concentration of interacting molecules within a dextran biosensor matrix. Except where noted, all reagents and materials were purchased from BIAcore® AB (Upsala, Sweden). All measurements were performed at 25° C. Samples containing rat or human ghrelin (full length, acylated) were dissolved in HBS-EP buffer (150 mM sodium chloride, 3 mM EDTA, 0.005% (w/v) surfactant P-20, and 10 mM HEPES, pH 7.4). A capture antibody, goat anti-mouse Kappa (Southern Biotechnology, Inc), was immobilized onto flow cells using amine-coupling chemistry. Flow cells (1-4) were activated for 7 minutes with a 1:1 mixture of 0.1 M N-hydroxysuccinimide and 0.1 M 3-(N,N-dimethylamino)propyl-N-ethylcarbodiimide at a flow rate of 10 μl/min. Goat anti-mouse Kappa (30 μg/mL in 10 mM sodium acetate, pH 4.5) was manually injected over all 4 flow cells at a flow rate of 10 μL/min. The surface density was monitored and additional goat anti-mouse Kappa was injected if needed to individual cell until all flow cells reach a surface density of 4500-5000 response units (RU). Surfaces were blocked with a 7 minute injection of 1 M ethanolamine-HCl, pH 8.5(10 μL/min). To ensure complete removal of any noncovalently bound goat anti-mouse Kappa, 15 μL of 10 mM glycine, pH 1.5 was injected twice. Running buffer used for kinetic experiments contained 10 mM HEPES, pH 7.4, 150 mM NaCl, 0.005% P20.
(§4) Collection of kinetic binding data was performed at maximum flow rate (100 μL/min) and a low surface density to minimize mass transport effects.

Test [5] has as its target T2, full-length human ghrelin acylated with an octanoyl group on the serine at position 3 (human, n-octanoyl group on Ser 3). The experiment in a line: cell-based or functional assay.
The target of test [6] is T2, full-length human ghrelin acylated with …. Put plainly: SPR, BIAcore 2000, 25 C; Fab captured by goat anti-mouse kappa, ghrelin as analyte; koff/kon, average of three. The method, then:
as §3, §4

The target of test [7] is B1. Put plainly: inferred by the filing from inhibition of the analog in the FLPR calcium assay.

Residue numbers refer to the chain shown, from its start. Where no end group is shown, it is not given here. The star is where a group is joined. Octanoyl = CCCCCCCC(=O)*

T2 sequence (peptide, as listed by the source): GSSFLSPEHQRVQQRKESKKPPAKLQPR

Regarding B1, the “Ave. OD” value with anti-hGhrelin Fab 2291 [1] was found to be 0.065 OD; in the test with anti-hGhrelin Fab 2291 [2], 0.399 OD; in the test with anti-hGhrelin Fab 2291 [3], 0.127 OD.
Turning to B2, the results for the Kd in test [4] and in test [6] were 1.16 nM and 1.01 nM, respectively. The “IC50 (nM), FLPR calcium assay on AV12 cells expressing human GHS-R1a” value (shortened to “IC50 (nM), FLPR calcium assay”) in test [5] is 0.9 nM. Moreover, in test [7], the binding result is listed as “binds”.
For B3, the figures for the Kd in test [4] and in test [6] were 1.14 nM and 1.04 nM, respectively. For the same molecule, the “IC50 (nM), FLPR calcium assay” value in test [5] was 1.1 nM. In addition, the binding result in test [7] is given as “binds”.
Take B4: the Kd in test [4] stood at 1.68 nM; in test [6] it was 1.08 nM. In test [5], the “IC50 (nM), FLPR calcium assay” value worked out at 0.8 nM. Also, the binding result in test [7] is “binds”.
Regarding B5, the dissociation constant Kd was found to be 5.42 nM in test [4] and 3.38 nM in test [6]. The “IC50 (nM), FLPR calcium assay” value in test [5] was determined as 1.9 nM. The binding result in test [7] is on record as “binds”.

These data come from US20060269550A1 (published 2006).
